Source: the nanobody polyreactivity screen of Harvey et al. (2022)

Assay: yeast display, Sf9 membrane polyspecificity reagent, FACS + sequencing; frameworks hold sequencing errors
Procedure, shortened: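 After 36–48 hours of galactose induction, yeast (Saccharomyces cerevisiae BJ5465) displaying a synthetic nanobody library were stained at 4 °C for 1 hour with 10% biotinylated, detergent-solubilized Sf9 membrane reagent. Streptavidin microbeads enriched the stained cells before FACS sorting into low and high (top ~1%) gates on anti-HA and streptavidin fluorescence. Each clone's polyreactivity label reflects its gate of origin.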

Sequence	polyreactivity (PSR sort gate)
QVQLVDSGGGLVQAGGSLRLSCAASGSITYYAMGWYRQAPGKERELVAAISSSGGSTYYADSVKGRFTISRDNAKNTVYLQMNSLKPEDTAVYYCAAYGRYGAHTGYGSWGQGTQVTVSS	high polyreactivity
QVQLVDSGGGLVQAGGSLRLSCAASGSTFPNNAMGRYRQAPGKERELVAAITTRGGSTYYADSVKGRFTISRDNAKNTVYLQMNSLKAEDTAVYYCAKRRRSAAPKYDYWGQGTQVTVSS	high polyreactivity
QVQLVDSGGGLVQAGGSLRLSCAASGSTFTSYAMGWYRQAPGKERELVAAITGSGGRTYYADSVKGRFTISRDNAKNTVYLQMNSLKPEDTAVYYCAARKVRTVYQSRGNYWGQGTLVTVSS	high polyreactivity
QVQLVDSGGGLVQAGGSLRLSCAASGSTFYGYAMGWYRQAPGKERELVAAITSSGTRTYYADSVKGRITISRDNAKNSVYLQMNSLKPEDTAVYYCAADAPNFGLYRDKDYDYWGQGTQVTVSS	high polyreactivity
QVQLVDSGGGLVQAGGSLRLSCAASGSTFYWYPMGWYRQAPGKERELVAAISRSSGSTYYADSVKGRFTISRDNAKNTVYLQMNSLTPEDTAVYYCAADYYLRSFVWTAYDSWGHGTQVTVSS	high polyreactivity
QVQLVDSGGGLVQAGGSLRLSCAASGSTYSPNAMGWNRQAPGKERELVAAITGGGSTTYADSVQGRFTISRDNATNTVYLQMNSLKPEETAVYYCNTDGPRYARPFDSWGQGTQVTVSS	low polyreactivity
QVQLVDSGGGLVQAGGSLRLSCAASGYIFPWYVKGWYRQAPVKERELVAAISWSGGSTYYADSVKGRFTISRDNAKNTVYLQMKSLKPEDTAVYYCNAVRTYRDVSYNSWGQGTQVNVSS	high polyreactivity
QVQLVDSGGGLVQAGGSLRLSCAASGYIFRVYAMGWYRQAPGKERELVAAISGSGGRTYYADSVKGRFTISRDNAKNTVYLQMNSLKPEDTAVYYCAAYRVSDYDYWGQGTQVTVSS	high polyreactivity
QVQLVDSGGGLVQAGGSLRLSCAASGYTFPSKTMGWYRQAPGKERELVAAISGGGRTYYADSVKGRFTISRDNAKNTVYLQMNCLKPEDSAVYYCAKDSWYTQNRYNYWGQGTQVNVSS	low polyreactivity
QVQLVDSGGGLVQAGGSLRLSCAASVITFGYYAMGWYRQAPGKERELVAAISRSGGNTRYADSVKGRFTISRDNAKNTVYLQMNSLKTDDTAVYYCAKRTTYSDDYWGQGTQVTVSS	high polyreactivity
QVQLVDSGGGLVQAGGSLRLSCADSGRTFYTNAMGWYRQAPGKERELVAAIDISGSTYYADSVKGRFTISRDNAKNTVYLQMNSLKPEDTAVYYCNVDTVCLGGEKGGYYWGQGSQVTVSS	low polyreactivity
QVQLVDSGGGLVQAGGSLRLSCAPSGYIFPYNAMGWYRQAPGKEREFVAAITSSGGSTYYADSVKGRFTISRENAKNTVYLQMNSLKPEDTAVYYCARVPLHRYGYWGQGTQVNVSS	high polyreactivity
QVQLVDSGGGLVQAGGSLRLSCDASGITFYDYAMGLYRQAPGKEMEFVASITSSGGYTYYADSVKGRFTISRDNAKNTVYLQMNILKPEDTSVYYCNVRYKRNRWQYDYWGQGTQVTVSS	high polyreactivity
QVQLVDSGGGLVQAGGSLRLSCDASGSIFFWYTMGWYRQAPGKESELVATITGSGSSTTYADSVKGRFTISRDNAKNTVYLQMISLKPEDTAVYYCAAADIIDHSFPYDYWGLGTQVTVSS	low polyreactivity
QVQLVDSGGGLVQAGGSLRLSSAASGFTLLYNAMGSYRQAPGKERELVSTITGGGTTYADSVKGRFTISRDNAKNTVYLQMNSLKPEDTAVYYCATSRVWRLYRYLPQYRGYYYWGQGTQVTVSS	high polyreactivity
QVQLVDSGGGLVQAGGSLRLSSAASGSTFRYYAMGWYRQAPGKERELVAAISRSGGRTYYADSVKWRFTISRDKAKNTVYLQINSLKPEDNAVYYCNKDSRASPYGYWGQGTQVTVSS	high polyreactivity
QVQLVDSGGGLVQAGGSLRLTCAASGIIIPVYAMGWYRQAPGKERELVAAISSGGSTYYADSVKGRFTISRDNAKNTVYLQINSLKPEDTAVYYCAARKVRYPYRWYDYWGQGTQVTVSS	high polyreactivity
QVQLVDSGGGLVQAGGSLRLTCAASGRIFCDNAMGWYRQEPGKERELVAAISDSVVITYYADSVKGRFTISRDNAKNTVYLQMNSLKPEDTAVYYCAADKRGTVYLSSFWMDYWGQGTQVTVSS	low polyreactivity
QVQLVDSGGGLVQAGGSLRLTCAASGRTFYGNAMGWYRQAPGKERELVATINYSGGSTYYADSVKGRFTISRDNAKNTVYLQMNSLKPEDTAVYYCAADDPEEFDYWGQGTQVTVSS	low polyreactivity
QVQLVDSGGGLVQAGGSLRLTCAASGSIFNYYTMGWSRQAPGKERELVAAISSSGGSTYYADSVKGRFTISRDNAKNTVYLQMNSLKPVDTAVYFCNTYPPAHREYESWGQGTQLTVSS	high polyreactivity
QVQLVDSGGGLVQAGGSLRLTCAASGSIFPRNVMGWYRHAPGKERELVAAISSRATRTYYADSVKGRFTISRDNAKNTVYLQMNSLKPEDTAVYYCAADRTLYSSGYYYWGQGSQVTVSS	high polyreactivity
